Article PMC13480645 (PLOS Pathogens, 2026)

B1: eCC65.1-12 (antibody, V domains shown)
VH: EVQLVQSGAEVKKPGASVKVSCKASGYTFTSQYMHWVRQAPGQGLEWMGIIDPSGGGTSYAQKFRDRVSMTRDTPTSTVYMELRSLRSEDTAVYYCASLWFENPSWRDYWGQGTLVTVSS
VL: DVVMTQSPGTLSLSPGERATLSCRASQTVNKNYLAWYQQKPGQAPRLLIYHASSRATGIPDRFSGSGSGTDFTLTISRLEPEDFAVYYCQQYGASPPLFTFGPGTKLEIK
B2: eCC65.1-8 (antibody, V domains shown)
VH: VQLVQSGAEVKKPGASVKVSCKASGYEFTSQYMHWVRQAPGQGLEWMGIIDPSGGGASYAQKFRDRVSMTRDTPTSTVYMELRSLRSEDTAVYYCASLWFGNPSWRDYWGQGTLVTVSS
VL: VMTQSPGTLSLSPGERATLSCRASQTVNSNYLAWYQQKPGQAPRLLIYHASSRATGIPDRFSGSGSGTDFTLTISRLEPEDFAVYYCQQYQSSPPLFTFGPGTKLEIK
B3: eCC65.1-9 (antibody, V domains shown)
VH: VQLVQSGAEVKKPGASVKVSCKASGYDFTSQYMHWVRQAPGQGLEWMGIIDPEGGGTSYAQKFRDRVSMTRDTPTSTVYMELRSLRSEDTAVYYCASLWFEKPSWRDYWGQGTLVTVSS
VL: VMTQSPGTLSLSPGERATLSCRASQTVTSNYLAWYQQKPGQAPRLLIYHASSRATGIPDRFSGSGSGTDFTLTISRLEPEDFAVYYCQQYGSKPPLFTFGPGTKLEIK
B4: eCC65.1-1 (antibody, V domains shown)
VH: VQLVQSGAEVKKPGASVKVSCKASGYEFTSQYMHWVRQAPGQGLEWMGIIDPSGGGASYAQKFRDRVSMTRDTPTSTVYMELRSLRSEDTAVYYCASLWFGNPSWRDYWGQGTLVTVSS
VL: VMTQSPGTLSLSPGERATLSCRASQTVNSNYLAWYQQKPGQAPRLLIYHASSRATGIPDRFSGSGSGTDFTLTISRLEPEDFAVYYCQQYGASPPLFTFGPGTKLEIK
B5: eCC65.1-2 (antibody, V domains shown)
VH: VQLVQSGAEVKKPGASVKVSCKATGYTFTSQYMHWVRQAPGQGLEWMGIIDPKGGGTSYAQKFRDRVSMTRDTPTSTVYMELRSLRSEDTAVYYCASLWFENPSWTDYWGQGTLVTVSS
VL: VMTQSPGTLSLSPGERATLSCRASQTVNKNYLAWYQQKPGQAPRLLIYHASSRATGIPDRFSGSGSGTDFTLTISRLEPEDFAVYYCQQYGSSPPLFTFGPGTKLEIK
B6: eCC65.1-6 (antibody, V domains shown)
VH: EVQLVQSGAEVKKPGASVKVSCKASGYTFTSQYMHWVRQAPGQGLEWMGIIDPSGGGTSYAQKFRDRVSMTRDTPTSTVYMELRSLRSEDTAVYYCASLWFENPSWRDYWGQGTLVTVSS
VL: VMTQSPGTLSLSPGERATLSCRASQTVNKNYLAWYQQKPGQAPRLLIYHASSRATGIPDRFSGSGSGTDFTLTISRLEPEDFAVYYCQQYGSSPPLFTFGPGTKLEIK
B7: eCC65.1-4 (antibody, V domains shown)
VH: VQLVQSGAEVKKPGASVKVSCKASGYTFESQYMHWVRQAPGQGLEWMGIIDPKGGGTSYAQKFRDRVSMTRDTPTSTVYMELRSLRSEDTAVYYCASLWFETPSWRDYWGQGTLVTVSS
VL: VMTQSPGTLSLSPGERATLSCRASQTVNKNYLAWYQQKPGQAPRLLIYGASSRATGIPDRFSGSGSGTDFTLTISRLEPEDFAVYYCQTYGSSPPLFTFGPGTKLEIK
B8: eCC65.1-11 (antibody, V domains shown)
VH: VQLVQSGAEVKKPGASVKVSCKASGYEFTSQYMHWVRQAPGQGLEWMGIIDPSGGGASYAQKFRDRVSMTRDTPTSTVYMELRSLRSEDTAVYYCASLWFGNPSWRDYWGQGTLVTVSS
VL: VMTQSPGTLSLSPGERATLSCRASSTVNSNYLAWYQQKPGQAPRLLIYHASSRATGIPDRFSGSGSGTDFTLTISRLEPEDFAVYYCQQYGASPPLFTFGPGTKLEIK
B9: eCC65.1-13 (antibody, V domains shown)
VH: EVQLVQSGAEVKKPGASVKVSCKASGYTFTSQYMHWVRQAPGQGLEWMGIIDPSGGGTSYAQKFRDRVSMTRDTPTSTVYMELRSLRSEDTAVYYCASLWFENPSWRDYWGQGTLVTVSS
VL: VMTQSPGTLSLSPGERATLSCRASQTVNKNYLAWYQQKPGQAPRLLIYGASSRATGIPDRFSGSGSGTDFTLTISRLEPEDFAVYYCQQYGASPPLFTFGPGTKLEIK
B10: eCC65.1-7 (antibody, V domains shown)
VH: VQLVQSGAEVKKPGASVKVSCKASGYSFTSQYMHWVRQAPGQGLEWMGIIDPSGGGTSYAQKFRDRVSMTRDTPTSTVYMELRSLRSEDTAVYYCASLWFENPSWRDYWGQGTLVTVSS
VL: VMTQSPGTLSLSPGERATLSCRASQTVNKNYLAWYQQKPGQAPRLLIYHASSRATGIPDRFSGSGSGTDFTLTISRLEPEDFAVYYCQQYGASPPLFTFGPGTKLEIK
B11: eCC65.1-5 (antibody, V domains shown)
VH: VQLVQSGAEVKKPGASVKVSCKATGYTFTSQYMHWVRQAPGQGLEWMGIIDPSGGGTSYAQKFRDRVSMTRDTPTSTVYMELRSLRSEDTAVYYCASIWFENPSWRDYWGQGTLVTVSS
VL: VMTQSPGTLSLSPGERATLSCRASQTVNKNYLAWYQQKPGQAPRLLIYGASSRATGIPDRFSGSGSGTDFTLTISRLEPEDFAVYYCQQYGSSPPLFTFGPGTKLEIK
B12: eCC65.1-10 (antibody, V domains shown)
VH: VQLVQSGAEVKKPGASVKVSCKASGYDFTSQYMHWVRQAPGQGLEWMGIIDPSGGGTSYAQKFRDRVSMTRDTPTSTVYMELRSLRSEDTAVYYCASLWFENPSWSDYWGQGTLVTVSS
VL: VMTQSPGTLSLSPGERATLSCRASQTVNKNYLAWYQQKPGQAPRLLIYHASSRATGIPDRFSGSGSGTDFTLTISRLEPEDFAVYYCQQYGASPPLFTFGPGTKLEIK
B13: eCC65.1-3 (antibody, V domains shown)
VH: VQLVQSGAEVKKPGASVKVSCKASGYTFTSQYMHWVRQAPGQGLEWMGIIDPEGGGTSYAQKFRDRVSMTRDTPTSTVYMELRSLRSEDTAVYYCASLWFEQPSWRDYWGQGTLVTVSS
VL: VMTQSPGTLSLSPGERATLSCRASQTVNKNYLAWYQQKPGQAPRLLIYHASSRATGIPDRFSGSGSGTDFTLTISRLEPEDFAVYYCQQYGASPPLFTFGPGTKLEIK

Key:
[1] = molecular target: T1, SARS-CoV-2 S-2P protein (SARS-CoV-2, ancestral (Wuhan-Hu-1) …, UniProt P0DTC2, stabilised); assay: cell-based or functional assay
[2] = molecular target: T1, SARS-CoV-2 S-2P protein; assay: BLI; conditions: both partners purified

Row | Binder | IC50 of neutralisation of SARS-CoV-2 pseudovirus (HeLa-hACE2 cells) [1] | Kd [2] | kon [2]
1 | B1 | 5.77 µg/mL | < 0.001 nM | 273000 M⁻¹ s⁻¹
2 | B2 | 3.95 µg/mL | 0.945 nM | 258000 M⁻¹ s⁻¹
3 | B3 | 2.6 µg/mL | 0.0102 nM | 306000 M⁻¹ s⁻¹
4 | B4 | 5.79 µg/mL | 0.843 nM | 236000 M⁻¹ s⁻¹
5 | B5 | 2.05 µg/mL | < 0.001 nM | 283000 M⁻¹ s⁻¹
6 | B6 | 2.98 µg/mL | 0.0472 nM | 261000 M⁻¹ s⁻¹
7 | B7 | 1.84 µg/mL | 0.0136 nM | 287000 M⁻¹ s⁻¹
8 | B8 | 5.26 µg/mL | 0.801 nM | 249000 M⁻¹ s⁻¹
9 | B9 | 2.41 µg/mL | 0.0819 nM | 256000 M⁻¹ s⁻¹
10 | B10 | 3.01 µg/mL | 0.157 nM | 270000 M⁻¹ s⁻¹
11 | B11 | 1.63 µg/mL | < 0.001 nM | 286000 M⁻¹ s⁻¹
12 | B12 | 1.86 µg/mL | < 0.001 nM | 278000 M⁻¹ s⁻¹
13 | B13 | 4.67 µg/mL | < 0.001 nM | 289000 M⁻¹ s⁻¹
